Laboratory results published in FireProtDB.
“And” between values parts separate entries of the source, which are not always exact repeats. Equal values may be shown once.

B1: Ribonuclease, P00648 (parent)
chain: MMKMEGIALKKRLSWISVCLLVLVSAAGMLFSTAAKTETSSHKAHTEAQVINTFDGVADYLQTYHKLPDNYITKSEAQALGWVASKGNLADVAPGKSIGGDIFSNREGKLPGKSGRTWREADINYTSGFRNSDRILYSSDWLIYKTTDHYQTFTKIR
B2: Phosphoglycerate kinase, P00560 (parent)
chain: MSLSSKLSVQDLDLKDKRVFIRVDFNVPLDGKKITSNQRIVAALPTIKYVLEHHPRYVVLASHLGRPNGERNEKYSLAPVAKELQSLLGKDVTFLNDCVGPEVEAAVKASAPGSVILLENLRYHIEEEGSRKVDGQKVKASKEDVQKFRHELSSLADVYINDAFGTAHRAHSSMVGFDLPQRAAGFLLEKELKYFGKALENPTRPFLAILGGAKVADKIQLIDNLLDKVDSIIIGGGMAFTFKKVLENTEIGDSIFDKAGAEIVPKLMEKAKAKGVEVVLPVDFIIADAFSADANTKTVTDKEGIPAGWQGLDNGPESRKLFAATVAKAKTIVWNGPPGVFEFEKFAAGTKALLDEVVKSSAAGNTVIIGGGDTATVAKKYGVTDKISHVSTGGGASLELLEGKELPGVAFLSEKK
B3: Cytochrome c-552, P15452 (parent)
chain: MKKFLLVAVVGLAGITFANEQLAKQKGCMACHDLKAKKVGPAYADVAKKYAGRKDAVDYLAGKIKKGGSGVWGSVPMPPQNVTDAEAKQLAQWILSIK
B4: Membrane-associated guanylate kinase, WW and PDZ domain-containing protein 1, Q96QZ7 (parent)
chain: MSKVIQKKNHWTSRVHECTVKRGPQGELGVTVLGGAEHGEFPYVGAVAAVEAAGLPGGGEGPRLGEGELLLEVQGVRVSGLPRYDVLGVIDSCKEAVTFKAVRQGGRLNKDLRHFLNQRFQKGSPDHELQQTIRDNLYRHAVPCTTRSPREGEVPGVDYNFLTVKEFLDLEQSGTLLEVGTYEGNYYGTPKPPSQPVSGKVITTDALHSLQSGSKQSTPKRTKSYNDMQNAGIVHAENEEEDDVPEMNSSFTADSGEQEEHTLQETALPPVNSSIIAAPITDPSQKFPQYLPLSAEDNLGPLPENWEMAYTENGEVYFIDHNTKTTSWLDPRCLNKQQKPLEECEDDEGVHTEELDSELELPAGWEKIEDPVYGIYYVDHINRKTQYENPVLEAKRKKQLEQQQQQQQQQQQQQQQQQQQQTEEWTEDHSALVPPVIPNHPPSNPEPAREVPLQGKPFFTRNPSELKGKFIHTKLRKSSRGFGFTVVGGDEPDEFLQIKSLVLDGPAALDGKMETGDVIVSVNDTCVLGHTHAQVVKIFQSIPIGASVDLELCRGYPLPFDPDDPNTSLVTSVAILDKEPIIVNGQETYDSPASHSSKTGKVNGMKDARPSSPADVASNSSHGYPNDTVSLASSIATQPELITVHIVKGPMGFGFTIADSPGGGGQRVKQIVDSPRCRGLKEGDLIVEVNKKNVQALTHNQVVDMLVECPKGSEVTLLVQRGGLPVPKKSPKSQPLERKDSQNSSQHSVSSHRSLHTASPSHSTQVLPEFPPAEAQAPDQTDSSGQKKPDPFKIWAQSRSMYENRPMSPSPASGLSKGEREREINSTNFGECPIPDYQEQDIFLWRKETGFGFRILGGNEPGEPIYIGHIVPLGAADTDGRLRSGDELICVDGTPVIGKSHQLVVQLMQQAAKQGHVNLTVRRKVVFAVPKTENEVPSPASSHHSSNQPASLTEEKRTPQGSQNSLNTVSSGSGSTSGIGSGGGGGSGVVSTVVQPYDVEIRRGENEGFGFVIVSSVSRPEAGTTFAGNACVAMPHKIGRIIEGSPADRCGKLKVGDRILAVNGCSITNKSHSDIVNLIKEAGNTVTLRIIPGDESSNATLLTNAEKIATITTTHTPSQQGTQETRNTTKPKQESQFEFKAPQATQEQDFYTVELERGAKGFGFSLRGGREYNMDLYVLRLAEDGPAERCGKMRIGDEILEINGETTKNMKHSRAIELIKNGGRRVRLFLKRGDGSVPEYDPSSDRHGPATGPQGVPEVRAGPDRRQHPSLESSYPPDLHKSSPHGEKRAHARDPKGSREYSRQPNEHHTWNGTSRKPDSGACRPKDRAPEGRRDAQAERAAAANGPKRRSPEKRREGTRSADNTLERREKHEKRRDVSPERRRERSPTRRRDGSPSRRRRSLERLLEQRRSPERRRGGSPERRAKSTDRRRARSPERRRERSLDKRNREDRASHREREEANLKQDAGRSSRHPPEQRRRPYKECSTDLSI
B5: NADP-dependent isopropanol dehydrogenase, P25984 (parent)
chain: MKGFAMLGINKLGWIEKERPVAGSYDAIVRPLAVSPCTSDIHTVFEGALGDRKNMILGHEAVGEVVEVGSEVKDFKPGDRVIVPCTTPDWRSLEVQAGFQQHSNGMLAGWKFSNFKDGVFGEYFHVNDADMNLAILPKDMPLENAVMITDMMTTGFHGAELADIQMGSSVVVIGIGAVGLMGIAGAKLRGAGRIIGVGSRPICVEAAKFYGATDILNYKNGHIVDQVMKLTNGKGVDRVIMAGGGSETLSQAVSMVKPGGIISNINYHGSGDALLIPRVEWGCGMAHKTIKGGLCPGGRLRAEMLRDMVVYNRVDLSKLVTHVYHGFDHIEEALLLMKDKPKDLIKAVVIL
B6: T-cell surface antigen CD2, P08921 (parent)
chain: MRCKFLGSFFLLFSLSSKGADCRDSGTVWGALGHGINLNIPNFQMTDDIDEVRWERGSTLVAEFKRKMKPFLKSGAFEILANGDLKIKNLTRDDSGTYNVTVYSTNGTRILNKALDLRILEMVSKPMIYWECSNATLTCEVLEGTDVELKLYQGKEHLRSLRQKTMSYQWTNLRAPFKCKAVNRVSQESEMEVVNCPEKGLPLYLIVGVSAGGLLLVFFGALFIFCICKRKKRNRRRKGEELEIKASRMSTVERGPKPHSTQASAPASQNPVASQAPPPPGHHLQTPGHRPLPPSHRNREHQPKKRPPPSGTQVHQQKGPPLPRPRVQPKPPCGSGDVSLPPPN
B7: Triosephosphate isomerase, P00942 (parent)
chain: MARTFFVGGNFKLNGSKQSIKEIVERLNTASIPENVEVVICPPATYLDYSVSLVKKPQVTVGAQNAYLKASGAFTGENSVDQIKDVGAKWVILGHSERRSYFHEDDKFIADKTKFALGQGVGVILCIGETLEEKKAGKTLDVVERQLNAVLEEVKDWTNVVVAYEPVWAIGTGLAATPEDAQDIHASIRKFLASKLGDKAASELRILYGGSANGSNAVTFKDKADVDGFLVGGASLKPEFVDIINSRN
B8: Copper-transporting ATPase 2, P35670 (parent)
chain: MPEQERQITAREGASRKILSKLSLPTRAWEPAMKKSFAFDNVGYEGGLDGLGPSSQVATSTVRILGMTCQSCVKSIEDRISNLKGIISMKVSLEQGSATVKYVPSVVCLQQVCHQIGDMGFEASIAEGKAASWPSRSLPAQEAVVKLRVEGMTCQSCVSSIEGKVRKLQGVVRVKVSLSNQEAVITYQPYLIQPEDLRDHVNDMGFEAAIKSKVAPLSLGPIDIERLQSTNPKRPLSSANQNFNNSETLGHQGSHVVTLQLRIDGMHCKSCVLNIEENIGQLLGVQSIQVSLENKTAQVKYDPSCTSPVALQRAIEALPPGNFKVSLPDGAEGSGTDHRSSSSHSPGSPPRNQVQGTCSTTLIAIAGMTCASCVHSIEGMISQLEGVQQISVSLAEGTATVLYNPSVISPEELRAAIEDMGFEASVVSESCSTNPLGNHSAGNSMVQTTDGTPTSVQEVAPHTGRLPANHAPDILAKSPQSTRAVAPQKCFLQIKGMTCASCVSNIERNLQKEAGVLSVLVALMAGKAEIKYDPEVIQPLEIAQFIQDLGFEAAVMEDYAGSDGNIELTITGMTCASCVHNIESKLTRTNGITYASVALATSKALVKFDPEIIGPRDIIKIIEEIGFHASLAQRNPNAHHLDHKMEIKQWKKSFLCSLVFGIPVMALMIYMLIPSNEPHQSMVLDHNIIPGLSILNLIFFILCTFVQLLGGWYFYVQAYKSLRHRSANMDVLIVLATSIAYVYSLVILVVAVAEKAERSPVTFFDTPPMLFVFIALGRWLEHLAKSKTSEALAKLMSLQATEATVVTLGEDNLIIREEQVPMELVQRGDIVKVVPGGKFPVDGKVLEGNTMADESLITGEAMPVTKKPGSTVIAGSINAHGSVLIKATHVGNDTTLAQIVKLVEEAQMSKAPIQQLADRFSGYFVPFIIIMSTLTLVVWIVIGFIDFGVVQRYFPNPNKHISQTEVIIRFAFQTSITVLCIACPCSLGLATPTAVMVGTGVAAQNGILIKGGKPLEMAHKIKTVMFDKTGTITHGVPRVMRVLLLGDVATLPLRKVLAVVGTAEASSEHPLGVAVTKYCKEELGTETLGYCTDFQAVPGCGIGCKVSNVEGILAHSERPLSAPASHLNEAGSLPAEKDAVPQTFSVLIGNREWLRRNGLTISSDVSDAMTDHEMKGQTAILVAIDGVLCGMIAIADAVKQEAALAVHTLQSMGVDVVLITGDNRKTARAIATQVGINKVFAEVLPSHKVAKVQELQNKGKKVAMVGDGVNDSPALAQADMGVAIGTGTDVAIEAADVVLIRNDLLDVVASIHLSKRTVRRIRINLVLALIYNLVGIPIAAGVFMPIGIVLQPWMGSAAMAASSVSVVLSSLQLKCYKKPDLERYEAQAHGHMKPLTASQVSVHIGMDDRWRDSPRATPWDQVSYVSQVSLSSLTSDKPSRHSAAADDDGDKWSLLLNGRDEEQYI
B9: Alpha-lactalbumin, P00712 (parent)
chain: MMSFVSLLLVGILFHATQAEQLTKCEVFQKLKDLKDYGGVSLPEWVCTAFHTSGYDTQAIVQNNDSTEYGLFQINNKIWCKDDQNPHSRNICNISCDKFLDDDLTDDIVCAKKILDKVGINYWLAHKALCSEKLDQWLCEKL

Variants of: B1
Conditions: Bacillus amyloliquefaciens; pH 6.3; 25 °C; Urea; Fluorescence; MES 50 mM; reversible: yes; structure 1BNI; whole UniProt chain shown

Variant	ddG of mutation (higher = less stable)
T63S	1.87 kcal/mol
L61A	4.8 kcal/mol
T73A	2.14 kcal/mol
T53A	2.23 kcal/mol
Y125F	1.5 kcal/mol

Same assay, conditions: Bacillus amyloliquefaciens; pH 6.3; 25 °C; Urea; Fluorescence; MES 1 M; structure 1BNI; whole UniProt chain shown

Variant	ddG of mutation (higher = less stable)	unfolding free energy
K74A	-0.53 kcal/mol	9.43 kcal/mol

Same assay, conditions: Bacillus amyloliquefaciens; pH 6.3; 25 °C; Thermal; Fluorescence; MES 50 mM; structure 1BNI; whole UniProt chain shown

Variant	ddG of mutation (higher = less stable)	unfolding free energy
D101A	3.3 kcal/mol	6.9 kcal/mol
D101N	2.6 kcal/mol	7.6 kcal/mol

Variants of: B2
Conditions: Saccharomyces cerevisiae (strain ATCC 204508 / S288c); pH 6.5; 25 °C; GdnHCl; CD; Sodium phosphate 20 mM; reversible: yes; structure 3PGK; whole UniProt chain shown

Variant	ddG of mutation (higher = less stable)	denaturant m value	unfolding free energy
H389Q	0.84 kcal/mol	6.08 kcal/mol/M	2.99 kcal/mol

Same assay, conditions: Saccharomyces cerevisiae (strain ATCC 204508 / S288c); pH 7.5; 22 °C; GdnHCl; CD; Tris 20 mM; structure 3PGK; whole UniProt chain shown

Variant	ddG of mutation (higher = less stable)	denaturant midpoint (higher = more stable)	unfolding free energy
W309Y	3.6 kcal/mol	0.55 M	4.2 kcal/mol
W334F	-2.2 kcal/mol	0.64 M	10 kcal/mol

Same assay, conditions: Saccharomyces cerevisiae (strain ATCC 204508 / S288c); pH 6.2; 20 °C; GdnHCl; CD; potassium phosphate 50 mM; structure 3PGK; whole UniProt chain shown

Variant	denaturant m value	unfolding free energy
W309F	18 kcal/mol/M	10.3 kcal/mol
W309F W334F Y123W	14 kcal/mol/M	5.71 kcal/mol

Same assay, conditions: Saccharomyces cerevisiae (strain ATCC 204508 / S288c); pH 6.2; 20 °C; Thermal; CD; potassium phosphate 20 mM; structure 3PGK; whole UniProt chain shown

Variant	unfolding free energy
W309F	5.43 kcal/mol
W334F	5.16 kcal/mol
W309F W334F Y123W	5.23 kcal/mol

Variants of: B3
Conditions: Hydrogenobacter thermophilus (strain DSM 6534 / IAM 12695 / TK-6); pH 7; Thermal; CD; reversible: yes; structure 1YNR; whole UniProt chain shown

Variant	change of melting temperature, mutant - wild type (higher = more stable)
A91V	-7.5 °C and -2.9 °C

Variants of: B4
Conditions: Homo sapiens; pH 7; Thermal; CD; Tris-HCl 20 mM; NaCl 100 mM; structure 2ZAJ; whole UniProt chain shown

Variant	unfolding enthalpy (calorimetric)	unfolding enthalpy (van 't Hoff)
D370S	14.4 kcal/mol and 9.15 kcal/mol	9.37 kcal/mol and 9.15 kcal/mol

Variants of: B5
Conditions: Clostridium beijerinckii; pH 6.8; Thermal; CD; Na/K phosphate 50 mM; structure 1KEV; whole UniProt chain shown

Variant	Tm	change of melting temperature, mutant - wild type (higher = more stable)
V224E S254K	70.5 °C	5.4 °C
V224E S254K Q165E M304R R238A	73.6 °C	8.5 °C
Q165E M304R	70.4 °C	5.3 °C
V224E S254K Q165E M304R	73.7 °C	8.6 °C

Variants of: B6
Conditions: Rattus norvegicus; pH 5; 25 °C; Urea; Fluorescence; Sodium acetate 50 mM; reversible: yes; structure 1HNG; whole UniProt chain shown

Variant	ddG of mutation (higher = less stable)
Y98F	-1.49 kcal/mol

Variants of: B7
Conditions: Saccharomyces cerevisiae (strain ATCC 204508 / S288c); pH 7.4; Thermal; CD; Tris 50 mM; reversible: No; structure 1YPI; whole UniProt chain shown

Variant	change of melting temperature, mutant - wild type (higher = more stable)
C126A	-11.2 °C
C126S	-11.2 °C

Same assay, conditions: Saccharomyces cerevisiae (strain ATCC 204508 / S288c); pH 8.5; Thermal; CD; Tris 50 mM; reversible: No; structure 1YPI; whole UniProt chain shown

Variant	change of melting temperature, mutant - wild type (higher = more stable)
C126S	-13 °C

Variants of: B8
Conditions: Homo sapiens; pH 7; 20 °C; Urea; CD; NaH2PO4 50 mM; transition: 2; reversible: No; structure 2ARF; whole UniProt chain shown

Variant	ddG of mutation (higher = less stable)	denaturant midpoint (higher = more stable)	unfolding free energy
H1069Q	0.96 kcal/mol	4.7 M and 4 M	5.74 kcal/mol and 6.21 kcal/mol

Variants of: B9
Conditions: Capra hircus; pH 7; 25 °C; Thermal; CD; sodium cacodylate 50 mM; CaCl2 1 mM; structure 1HFY; whole UniProt chain shown

Variant	ddG of mutation (higher = less stable)
T48V	-1.86 kcal/mol
